Measurements taken from US20190322750A1.

Target: T1, ITGA6
T1 sequence (P23229 whole entry, species assumed, looked up): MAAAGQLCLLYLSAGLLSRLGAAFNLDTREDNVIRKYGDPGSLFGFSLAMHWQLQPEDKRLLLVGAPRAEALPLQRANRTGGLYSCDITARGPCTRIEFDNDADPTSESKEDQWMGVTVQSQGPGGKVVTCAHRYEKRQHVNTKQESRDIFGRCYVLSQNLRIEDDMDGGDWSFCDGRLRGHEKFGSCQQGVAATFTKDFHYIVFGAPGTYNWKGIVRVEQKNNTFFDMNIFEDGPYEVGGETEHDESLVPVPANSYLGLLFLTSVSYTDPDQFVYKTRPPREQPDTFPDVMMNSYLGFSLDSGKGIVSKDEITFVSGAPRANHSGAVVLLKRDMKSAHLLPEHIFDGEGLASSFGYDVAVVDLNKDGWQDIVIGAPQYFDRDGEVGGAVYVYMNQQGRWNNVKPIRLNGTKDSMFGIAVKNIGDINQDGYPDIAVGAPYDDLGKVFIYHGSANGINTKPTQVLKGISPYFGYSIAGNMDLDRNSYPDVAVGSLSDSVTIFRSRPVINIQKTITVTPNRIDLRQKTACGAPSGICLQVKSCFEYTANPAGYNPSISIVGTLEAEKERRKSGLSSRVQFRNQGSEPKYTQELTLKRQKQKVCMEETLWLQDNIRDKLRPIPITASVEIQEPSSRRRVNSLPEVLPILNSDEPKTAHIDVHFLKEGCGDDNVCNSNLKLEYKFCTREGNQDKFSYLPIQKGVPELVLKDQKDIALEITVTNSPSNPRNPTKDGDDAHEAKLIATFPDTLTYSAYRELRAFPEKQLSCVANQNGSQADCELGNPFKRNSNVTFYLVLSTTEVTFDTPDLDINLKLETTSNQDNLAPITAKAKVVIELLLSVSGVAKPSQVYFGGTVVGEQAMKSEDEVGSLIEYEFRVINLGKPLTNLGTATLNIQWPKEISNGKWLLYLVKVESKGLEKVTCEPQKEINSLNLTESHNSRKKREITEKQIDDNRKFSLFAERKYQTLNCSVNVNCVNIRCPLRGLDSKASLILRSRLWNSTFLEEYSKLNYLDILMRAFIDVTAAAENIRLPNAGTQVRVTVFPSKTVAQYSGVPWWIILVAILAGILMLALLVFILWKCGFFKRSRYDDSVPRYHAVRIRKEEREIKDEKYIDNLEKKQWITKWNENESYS
Experiment: ELISA on coated antigen, column ITGA6

Chain of Avelumab (antibody) (VH): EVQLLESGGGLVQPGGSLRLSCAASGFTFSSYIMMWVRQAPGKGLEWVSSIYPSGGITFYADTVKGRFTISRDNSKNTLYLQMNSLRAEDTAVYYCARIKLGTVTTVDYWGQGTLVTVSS
Chain of Avelumab (antibody) (VL): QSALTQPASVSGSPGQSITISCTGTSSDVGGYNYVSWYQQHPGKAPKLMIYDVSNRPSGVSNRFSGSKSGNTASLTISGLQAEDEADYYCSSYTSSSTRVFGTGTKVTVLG

Work on Avelumab (antibody) yielded an absorbance at 490 nm of 0.6.
